From paper PMC5028754, “Structural studies of the yeast DNA damage-inducible protein Ddi1 reveal domain architecture of this eukaryotic protein family” (Scientific Reports, 2016)

B1: full-length yeast Ddi1 (natural protein, S. cerevisiae, UniProt P40087 1-428, looked up)
chain: MDLTISNELTGEIYGPIEVSEDMALTDLIALLQADCGFDKTKHDLYYNMDILDSNRTQSLKELGLKTDDLLLIRGKISNSIQTDAATLSDEAFIEQFRQELLNNQMLRSQLILQIPGLNDLVNDPLLFRERLGPLILQRRYGGYNTAMNPFGIPQDEYTRLMANPDDPDNKKRIAELLDQQAIDEQLRNAIEYTPEMFTQVPMLYINIEINNYPVKAFVDTGAQTTIMSTRLAKKTGLSRMIDKRFIGEARGVGTGKIIGRIHQAQVKIETQYIPCSFTVLDTDIDVLIGLDMLKRHLACVDLKENVLRIAEVETSFLSEAEIPKSFQEGLPAPTSVTTSSDKPLTPTKTSSTLPPQPGAVPALAPRTGMGPTPTGRSTAGATTATGRTFPEQTIKQLMDLGFPRDAVVKALKQTNGNAEFAASLLFQ
notes: Ddi1 of Saccharomyces cerevisiae, full length, cloned into pET16b; ITC concentration calculated to monomer; also called Ddi1 FL; DNA damage-inducible protein Ddi1
B2: Ddi1 UBL-RVP (1-325) (domain or fragment, S. cerevisiae, UniProt P40087 1-325, looked up)
chain: MDLTISNELTGEIYGPIEVSEDMALTDLIALLQADCGFDKTKHDLYYNMDILDSNRTQSLKELGLKTDDLLLIRGKISNSIQTDAATLSDEAFIEQFRQELLNNQMLRSQLILQIPGLNDLVNDPLLFRERLGPLILQRRYGGYNTAMNPFGIPQDEYTRLMANPDDPDNKKRIAELLDQQAIDEQLRNAIEYTPEMFTQVPMLYINIEINNYPVKAFVDTGAQTTIMSTRLAKKTGLSRMIDKRFIGEARGVGTGKIIGRIHQAQVKIETQYIPCSFTVLDTDIDVLIGLDMLKRHLACVDLKENVLRIAEVETSFLSEAEIPK
notes: Contains the RVP domain; also called UBL-RVP construct (without the UBA)
B3: Ddi1 RVP-UBA (180-428) (domain or fragment, S. cerevisiae, UniProt P40087 180-428, looked up)
chain: QQAIDEQLRNAIEYTPEMFTQVPMLYINIEINNYPVKAFVDTGAQTTIMSTRLAKKTGLSRMIDKRFIGEARGVGTGKIIGRIHQAQVKIETQYIPCSFTVLDTDIDVLIGLDMLKRHLACVDLKENVLRIAEVETSFLSEAEIPKSFQEGLPAPTSVTTSSDKPLTPTKTSSTLPPQPGAVPALAPRTGMGPTPTGRSTAGATTATGRTFPEQTIKQLMDLGFPRDAVVKALKQTNGNAEFAASLLFQ
notes: Ddi1 of Saccharomyces cerevisiae, residues 180-428 (RVP to UBA, lacks the UBL), cloned into pET16b; Contains the RVP domain; also called RVP-UBA construct (without the UBL)
B4: Ddi1 RVP (residues 185-325) (domain or fragment, S. cerevisiae, UniProt P40087 185-325, looked up)
chain: EQLRNAIEYTPEMFTQVPMLYINIEINNYPVKAFVDTGAQTTIMSTRLAKKTGLSRMIDKRFIGEARGVGTGKIIGRIHQAQVKIETQYIPCSFTVLDTDIDVLIGLDMLKRHLACVDLKENVLRIAEVETSFLSEAEIPK
notes: MALDI-TOF 16,320 Da (predicted 16,313 Da); also called RVP domain; Ddi1 retroviral protease-like domain; source: E. coli BL21(DE3), purified (glutathione-sepharose, 3C cleavage, gel filtration); not shown: GST, N-terminal, cleaved

How the values were obtained:
[1] = molecular target: T1, bovine ubiquitin (bovine, UniProt P0CG53 1-76); assay: ITC; ubiquitin or K48-Ub2 injected from the syringe into the Ddi1 construct in the sample cell; 50 mM HEPES, pH 7.4, 150 mM NaCl, 25 °C; VP-ITC; one-site model varying N, Kd and ΔH; full-length Ddi1 with ubiquitin also fitted to a two-sites model with N fixed to 1.0; conditions: both partners purified
T1 construct: ubiquitin, bovine (cut product of the ubiquitin precursors); source: bought: Sigma, cat. no; U6253

[2] = molecular target: the molecule itself; assay: crystal structure; Ddi1 RVP 185-325, 1.8 Å; crystallized in 0.1 M phosphate-citrate, pH 4.2, 0.4 M NaCl, 20% PEG 8000; two chains in the asymmetric unit

| Binder | Kd [1] | stoichiometry N [2] |
| --- | --- | --- |
| B1 | 320 µM | – |
| B2 | 310 µM | – |
| B3 | 43 µM | – |
| B4 | – | 2 |
